Results as given in patent publication US20110189205A1.

How the values were obtained:
[1] = molecular target: CGRP receptor on rat CNS1 glioma cells (rat) (UniProt Q63118); experiment: cell-based or functional assay
[2] = molecular target: CGRP receptor on human MDA-MB-231BR breast cancer cells (human) (UniProt Q16602); experiment: cell-based or functional assay
Sequence of CGRP receptor on human MDA-MB-231BR breast cancer cells (human) (Q16602 23-461, chain 1 of 2): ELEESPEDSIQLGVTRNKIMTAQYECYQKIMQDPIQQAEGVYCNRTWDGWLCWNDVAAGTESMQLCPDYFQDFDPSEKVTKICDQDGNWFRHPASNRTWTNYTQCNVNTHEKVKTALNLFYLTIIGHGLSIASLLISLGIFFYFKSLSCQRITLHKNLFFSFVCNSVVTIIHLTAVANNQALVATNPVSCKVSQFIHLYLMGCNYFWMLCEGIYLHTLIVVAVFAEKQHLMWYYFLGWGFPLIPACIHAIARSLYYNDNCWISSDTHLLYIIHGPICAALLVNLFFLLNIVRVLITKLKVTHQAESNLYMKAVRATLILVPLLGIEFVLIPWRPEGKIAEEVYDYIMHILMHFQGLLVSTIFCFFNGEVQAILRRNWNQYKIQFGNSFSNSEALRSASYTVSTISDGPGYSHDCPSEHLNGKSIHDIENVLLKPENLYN
Sequence of CGRP receptor on human MDA-MB-231BR breast cancer cells (human) (O60894 27-148, chain 2 of 2, further chain): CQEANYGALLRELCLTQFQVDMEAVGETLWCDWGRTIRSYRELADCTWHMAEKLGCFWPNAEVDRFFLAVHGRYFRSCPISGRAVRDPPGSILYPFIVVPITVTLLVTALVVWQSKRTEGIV

Sequence of CGRP receptor on rat CNS1 glioma cells (rat) (Q63118 24-464, chain 1 of 2): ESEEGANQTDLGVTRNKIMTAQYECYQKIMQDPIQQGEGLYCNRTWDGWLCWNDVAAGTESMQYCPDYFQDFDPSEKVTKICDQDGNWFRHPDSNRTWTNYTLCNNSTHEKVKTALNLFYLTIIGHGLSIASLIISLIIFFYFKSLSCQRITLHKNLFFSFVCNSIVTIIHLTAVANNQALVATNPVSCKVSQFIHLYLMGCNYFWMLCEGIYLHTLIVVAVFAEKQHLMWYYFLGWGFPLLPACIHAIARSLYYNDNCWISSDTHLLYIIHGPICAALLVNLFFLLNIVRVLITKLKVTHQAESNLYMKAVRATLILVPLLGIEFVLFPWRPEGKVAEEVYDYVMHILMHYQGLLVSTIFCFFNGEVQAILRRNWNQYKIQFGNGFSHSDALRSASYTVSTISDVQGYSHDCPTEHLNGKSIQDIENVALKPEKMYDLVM
Sequence of CGRP receptor on rat CNS1 glioma cells (rat) (Q9JJ74 27-148, chain 2 of 2, further chain): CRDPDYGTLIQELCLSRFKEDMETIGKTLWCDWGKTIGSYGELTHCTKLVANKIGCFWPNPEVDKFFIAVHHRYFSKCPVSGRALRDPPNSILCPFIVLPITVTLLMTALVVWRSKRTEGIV

CNS1 cell growth over control, normoxic conditions, 4 days in culture [1]: 4 fold
CNS1 cell growth over control, normoxic conditions, 5 days in culture [1]: 11 fold
CNS1 glioma growth over control, hypoxic conditions, 4 days in culture [1]: 72 fold
CNS1 glioma growth over control, hypoxic conditions, 5 days in culture [1]: 10 fold
MDA-MB-231BR cell growth over control, normoxic conditions, 4 days in culture [2]: 6 fold
Substance: calcitonin gene-related peptide (CGRP), unlabeled (from UniProt P01256 83-119)
